Source: the supplement of paper PMC12042874
± gives the uncertainty stated by the source.

Assay: amyloid nucleation score (Sup35N fusion, yeast selection) (log enrichment); library NNK1; higher = more nucleation; inactive = no reads after selection
How it was run: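 Output and input plasmid inserts were sequenced by Illumina after psi-negative yeast carrying Sup35N fused to peptides of 20 random codons had been induced 24 hours with 100 μM copper sulfate and grown 7 days at 30°C on medium lacking adenine and uracil. The nucleation score is the DiMSum log enrichment of output over input reads, centred on the mode score of non-aggregating sequences. Sequences with under 100 input reads were excluded.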

In order of falling amyloid nucleation score:
1. KRNRYTKGTHHTSFMNFYFC  8.37 ± 0.066
2. KVIFQVYYI  7.46 ± 0.047
3. KDSGYMCWMGDLCVWSP  5.97 ± 0.097
4. KLSGCMISKILFSPCWRD  5.896 ± 0.058
5. KNYLLSLGVCNFQSYPHKCW  4.22 ± 0.16
6. KVKRFDGCSSRSKHVVTEI  4.13 ± 0.076
7. KHSNLYIFPGVYFFQITSLY  3.96 ± 0.088
8. KNKPL  2.72 ± 0.15
9. KFIFVGNGECMRPGCSDDSL  1.99 ± 0.38
10. LAELWECDKSLKSPGAYWVL  1.49 ± 0.73
11. KDCCMLDIYVEAWSGSFGRK  1.44 ± 0.2
12. KVIRAGHDVVPRTYRRRSRR  1.29 ± 0.58
13. KVEWVSDTRVNLLGTFVLKA  1.18 ± 0.43
14. KLEMARAIKFFGYDTLETAF  1.1 ± 0.71
15. KVLILCAT  1.1 ± 0.62
16. KVPKRKITNFRGMSGFSRYR  0.985 ± 0.98
17. KVVSGA  0.879 ± 0.53
18. KGQFF  0.835 ± 0.75
19. KKALTALM  0.822 ± 0.98
20. KLAIYFILAACSRNVVED  0.768 ± 0.36
21. KPLEDFVDYKMMLMIHEEVC  0.763 ± 0.97
22. KITWDLF  0.759 ± 0.52
23. KRLDVKMVLPEVRFRLDVSL  0.732 ± 0.27
24. KWVHEIRSSMVCVYLAGNSR  0.677 ± 0.79
25. KTCYTVFSRPYENWS  0.625 ± 0.48
26. LAITDKPNANARRPPTPVLY  0.623 ± 0.51
27. KLYPFL  0.565 ± 0.32
28. KTTCIDTIR  0.565 ± 0.43
29. KNSIYSCVTRTFSPMVLRYC  0.557 ± 0.54
30. KFIVVS  0.507 ± 0.62
31. LAFGFTSWS  0.49 ± 0.38
32. KVQYLFCNYLIKSYMMVQCN  0.477 ± 0.39
33. KNLKW  0.476 ± 0.97
34. KVLGWNMGVHFNHGGRSFVM  0.461 ± 0.54
35. KYPYLYLPIRMLNRQHARVG  0.449 ± 0.62
36. KRPHGDH  0.416 ± 0.73
37. KVWSLKLSFGSLNMPMGYV  0.399 ± 0.26
38. KGRSCLGRLRLVGQMRPKYN  0.366 ± 0.76
39. KSVFIYLGMISLVG  0.352 ± 0.88
40. KSVVSFMTFPSLQEHKVVLI  0.33 ± 0.53
41. KVSVRYSNYSCVYFVYCRW  0.279 ± 0.27
42. KVFWLYPMNLS  0.278 ± 0.65
43. KLSVGLRYCRPATRTSAHVM  0.271 ± 0.35
44. KSKIQDLCCPSRPVVGMVCL  0.239 ± 0.43
45. KSVDFTYDEGRSTAVIVYHF  0.223 ± 0.29
46. KFSFCKS  0.207 ± 0.31
47. KKKYTEHISFTALHKLFTRR  0.189 ± 0.92
48. KRHVSGKVQMGWGVRRRPV  0.178 ± 0.72
49. KKRICFMSLSQRWRSRTTCW  0.164 ± 0.3
50. KNFHELTVDYVCVLYREQLF  0.115 ± 0.26
51. KYASVGASFVWC  0.102 ± 0.34
52. KELFLMPDGEPFMG  0.079 ± 0.61
53. KHYIKRASDGHAFSYVHLSL  0.068 ± 0.38
54. KSRWHMLLNS  0.051 ± 0.72
55. KVYTWVPPTMNYRMNLFIVR  0.036 ± 0.19
56. KSQKG  0.008 ± 0.36
57. KYSEDLIRQEDVVRYMGTMS  -0.056 ± 0.24
58. KNNIDIAFAV  -0.065 ± 0.98
59. KVFLRMQRSSGTVKCKSQTE  -0.065 ± 0.41
60. KMFTGNSEFFCFLTTVKLDR  -0.068 ± 0.61
61. KMATRINGWCDGASATTV  -0.154 ± 0.74
62. LADGLTVRSKYYISVNSVGS  -0.16 ± 0.4
63. KKVGRHFDLCALDRTQSGCW  -0.162 ± 0.39
64. KFSNWTDV  -0.164 ± 1.1
65. KNLGTRGHSMY  -0.164 ± 0.31
66. KFGDPSRAAILNMSGSISDK  -0.189 ± 0.46
67. KSRAGMNKACTQLYPLV  -0.215 ± 0.34
68. KPTLGVILTTTTFTRSCLYY  -0.252 ± 0.73
69. KLVIETSPCVRSHVSLVQKR  -0.277 ± 0.26
70. KGLIKDNCNTSGGEFNCGY  -0.278 ± 0.21
71. LAEVQRKTR  -0.291 ± 0.59
72. KSDNVVTRLRLLSAEVQW  -0.295 ± 0.98
73. KVLGQGYERMDLFIVVFR  -0.357 ± 0.59
74. LAIDNDSWFVETNYNFKFDV  -0.438 ± 0.57
75. KPDSMFDFER  -0.675 ± 1.3
76. KVCTHYSTHRWLSSQPSKVV  -0.696 ± 1.9
77. KLLPSKLCNASRFSFFYKES  -0.82 ± 0.81
78. KEFMRWHQTPRFVKKTHVRG  -0.834 ± 1.4
79. KRDLPTQTTDNLACSWAPTQ  -0.884 ± 2.4
80. KVVKCS  -0.97 ± 0.3
81. KYHRFFAG  -1.02 ± 1.8
82. KCTCSVKCSCIFCFIICCVC  -1.2 ± 1.7
83. KILTVHPSHNDPC  -1.32 ± 1.9
84. KNLVWMDRVQFRLSWAHVRL  -1.38 ± 2.4
85. KSCDSESFYGDTRSFHTDSV  -1.5 ± 1.3

In the case of KIGLNCFE, the amyloid nucleation score is reported as “inactive”.
In the case of KLLSGRLDTFSGGGDYMCPV, the amyloid nucleation score is reported as “inactive”.
For LAKATGHVVCMSRVRRPVGQ, the amyloid nucleation score was “inactive”.
